# Reference: US20240240209A1, “SYNTHESIS OF ENANTIOPURE CIS-A-IRONE FROM A RENEWABLE CARBON SOURCE” (Agency for Science, Technology and Research, priority 2021, published 2024)
# Substitutions are numbered along the chain they refer to. Numbers in names are those of the source. Entries after “also recorded” stand apart in the source; their conditions may differ.
# B1: pMT1_E153Y: pMT1 with E153Y (protein)
# chain: MPQEARTPQQQVTADEVGDWYDKFGEVYHLTLGESVHCGLWFPPDAPVPQDMELVTMSSQAQDRYTDYLIETLDPKAGQHLLDIGCGTGRTALKAARQRGIAVTGVAVSKEQIAAANRLAAGHGLTERLTFEVADAMRLPYEDESFDCAWAIYSLCHMDRAKALGEAWRVLKPGGDLLVLESVVTEELTEPETALFETLYAANVPPRLGEFFDIVSGAGFHTLSLKDLSANLAMTMNVFALGVYSRRAEFTERFGAEFVDGLLAGLGSAQETLIRKTRFFMATLRKPAV
# B2: pMT1_E153A: pMT1 with E153A (protein)
# chain: B1 chain with Y153A
# B3: pMT1_E153C: pMT1 with E153C (protein)
# chain: B1 chain with Y153C
# B4: pMT1_E153D: pMT1 with E153D (protein)
# chain: B1 chain with Y153D
# B5: pMT1_M236A: pMT1 with M236A (protein)
# chain: B1 chain with Y153E, M236A
# B6: pMT1_M236C: pMT1 with M236C (protein)
# chain: B1 chain with Y153E, M236C
# B7: pMT1_M236D: pMT1 with M236D (protein)
# chain: B1 chain with Y153E, M236D
# B8: pMT1_M236E: pMT1 with M236E (protein)
# chain: B1 chain with Y153E, M236E
# B9: pMT1_R160A: pMT1 with R160A (protein)
# chain: B1 chain with Y153E, R160A
# B10: pMT1_R160C: pMT1 with R160C (protein)
# chain: B1 chain with Y153E, R160C
# B11: pMT1_R160D (protein)
# chain: B1 chain with Y153E, R160D
# B12: pMT1_R160E (protein)
# chain: B1 chain with Y153E, R160E
# B13: pMT1_S182E: pMT1 with S182E (protein)
# chain: B1 chain with Y153E, S182E
# B14: pMT1_Y200A: pMT1 with Y200A (protein)
# chain: B1 chain with Y153E, Y200A
# B15: pMT1_Y200C: pMT1 with Y200C (protein)
# chain: B1 chain with Y153E, Y200C
# B16: pMT1_Y200D: pMT1 with Y200D (protein)
# chain: B1 chain with Y153E, Y200D
# B17: pMT1_Y200E: pMT1 with Y200E (protein)
# chain: B1 chain with Y153E, Y200E
# B18: D176V (protein)
# chain: MPQEARTPQQQVTADEVGDWYDKFGEVYHLTLGESVHCGLWFPPDAPVPQDMELVTMSSQAQDRFTDYLIETLDPKAGQHLLDIGCGTGRPALKAARQRGIAVTGVAVSKEQIAAANRLAAGHGLTERLTFEVADAMRLPYEDESFDCAWAIESLDHMDRAKALGEAWRVLKPGGVLLVAEEVVTEELTEPETALFETLFALNVPPRLGEFFDIVSGAGFHTLSLKDLSADLAMTMNVFALGVYSRRAEFTERFGAEFVDGLLAGLGSAQETVIRKTRFFMATLRKPAV
# modifications: Modified from pMT1
# B19: P191V (protein)
# chain: B18 chain with V176D, P191V
# modifications: Modified from pMT1
# B20: D159L (protein)
# chain: B18 chain with D159L, V176D
# modifications: Modified from pMT1
# B21: D176L, A248V: pMT12 with D176L and A248V (protein)
# chain: B18 chain with V176L, A248V
# modifications: Modified from pMT1
# B22: D176L: pMT12 with D176L (protein)
# chain: B18 chain with V176L
# modifications: Modified from pMT1
# B23: D176K (protein)
# chain: B18 chain with V176K
# modifications: Modified from pMT1
# B24: D176R (protein)
# chain: B18 chain with V176R
# modifications: Modified from pMT1
# B25: E190Q (protein)
# chain: B18 chain with V176D, E190Q
# modifications: Modified from pMT1
# B26: Q11H (protein)
# chain: B18 chain with Q11H, V176D
# modifications: Modified from pMT1
# B27: D176Y (protein)
# chain: B18 chain with V176Y
# modifications: Modified from pMT1
# B28: Q60K (protein)
# chain: B18 chain with Q60R, P91T, D156C, V176D, D231N
# modifications: Modified from pMT1
# Assay: Cell lysate reaction of pMT enzymes with psi-ionone, irones quantified by HS-SPME-GCMS
# Assay type: biochemical
# Details: pMT1_E153 mutants; AUC vs non-mutated (=1)
# In short: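 pMT1 site-saturation mutants were expressed in E. coli BL21(DE3) and lysed, and lysates were incubated 2 days at 28 °C with 0.2 mM SAM and 10 mg/L psi-ionone (plus caryophyllene) in 50 mM Tris pH 7, 10 mM MgCl2. Cis-α-irone was measured by HS-SPME-GCMS peak area and given as fold change over non-mutated enzyme.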
row,Molecule,fold change in cis-α-irone produced
1,B1,0.0
2,B2,0.1
3,B3,0.0
4,B4,0.2

# Same assay, conditions: pMT1_M236 mutants; AUC vs non-mutated (=1)
row,Molecule,fold change in cis-α-irone produced
1,B5,0.7
2,B6,4.7
3,B7,0.0
4,B8,0.9

# Same assay, conditions: pMT1_R160 mutants; AUC vs non-mutated (=1)
row,Molecule,fold change in cis-α-irone produced
1,B9,1.7
2,B10,1.5
3,B11,0.0
4,B12,0.0

# Same assay, conditions: pMT1_S182 mutants; AUC vs non-mutated (=1)
row,Molecule,fold change in cis-α-irone produced
1,B13,0.84

# Same assay, conditions: pMT1_Y200 mutants; AUC vs non-mutated (=1)
row,Molecule,fold change in cis-α-irone produced
1,B14,0.2
2,B15,0.1
3,B16,0.0
4,B17,0.0

# Assay: In-vivo cis-α-irone production screening of pMT7 and pMT12 mutants
# Assay type: cell-based, Escherichia coli
# Details: mutations made to pMT12; normalized to pMT12 (=1)
# Source text: Q60 was identified as another possible mutation site.
# FIGS. 24a and 24b show the in-vivo and in-vitro cis-α-irone production of other possible single mutations to pMT12. The in-vitro results in FIG. 24b validate the mutations and in-vivo results in FIG. 24a. The mutations in FIG. 24 include Q11H (SEQ ID No. 23), V12R (SEQ ID No. 24), A95C (SEQ ID No. 25), H123Q (SEQ ID No. 26), E127T (SEQ ID No. 27), M137T (SEQ ID No. 28), D176V (SEQ ID No. 29), D176Y (SEQ ID No. 30). P191S (SEQ ID No. 31), P191V (SEQ ID No. 32), F212L (SEQ ID No. 33), S268H (SEQ ID No. 34), AND T272A (SEQ ID No. 35). The screening results in FIGS. 24 and 25 are semi-quantitative to identify beneficial mutants that give greater than one-fold change of irone production as compared to pMT12.
# FIGS. 25a to 25c (and Table 4) show the in-vivo testing results of other possible mutations that may be made to pMT12 to improve its in-vivo production of cis-α-irone. FIGS. 25a to 25c each include two dotted lines to account for a 10% error bar to show the normalized fold change of 0.9 and 1.1.
# The four plasmids were transformed into E. coli BL21 (DE3), ΔaroA, ΔaroB, ΔaroC, ΔserC or E. coli BL21 (DE3), ΔaroA, ΔaroB, ΔaroC, ΔserC, ΔmetJ strains and plated on Agar plate containing LB media (10 g, tryptone. 5 g, yeast extract. 10 g, NaCl) supplemented with appropriate antibiotics (100 mg/L ampicillin, 34 mg/L chloramphenicol, 50 mg/L kanamycin, and 100 mg/L spectinomycin). One colony was picked and inoculate into LB media with antibiotics. 1% of overnight culture was inoculated into 1 ml fresh auto-inducing chemically defined media. The chemical media contains carbon source solution: 0.5 g/L glucose, 10 g/L glycerol; inducer: 30 mM lactose and base media: 2 g/L ammonium sulfate, 4.2 g/L KH2PO4, 11.24 g/L K2HPO4, 1.7 g/L citric acid, 0.5 g/L MgSO4, and 10 mL/L trace element solution. The trace element solution (100×) contained 0.25 g/L CoCl2·6H2O, 1.5 g/L MnSO4·4H2O, 0.15 g/L CuSO4·2H2O, 0.3 g/L H3BO3, 0.25 g/L Na2MoO4·2H2O, 0.8 g/L Zn(CH3COO)2, 5 g/L Fe(III) citrate, and 0.84 g/L ethylenediaminetetra-acetic acid (EDTA) at pH 8.0. The culture was grown at 28° C. for 3 days and the products were extracted with 1 ml hexane for GCMS analysis. An example of a fed-batch process for α-ionone Is briefly described, overnight culture was inoculated into 2 L chemical media comprising the base media and 5 g/L glucose, at 37° C. and 30% DO. pH was controlled at 7 with base solution (14% ammonia and 0.5 M NaOH). Feed media (500 g/L glucose and 5 g/L MgSO4) was added into bioreactor once OD600 reached 5, at a rate of 7.15-25.75 g/h glucose for about 4-5 h until OD600 reached ˜30-40. Subsequently, 0.1 mM IPTG was added to induce the production, and feeding rate was kept at a constant rate of 10 g/h glucose, and the temperature was reduced to 30° C. DO was adjusted to 2% or 10%. Feeding was stopped at 113 h when 2 L feeding media was finished, but the culture was further incubated for 24 h. To capture the evaporated products, the exhaust was connected to 25 ml sunflower oil.
row,Molecule,Fold change in in-vivo cis-α-irone production
1,B18,2.24
2,B19,1.26
3,B20,1.55
4,B21,3.14
5,B22,2.52
6,B23,1.90
7,B24,1.80
8,B25,2.90

# Same assay, conditions: single mutations vs parent (pMT7 or pMT12)
row,Molecule,in-vivo production of cis-α-irone (in words)
1,B26,significant increase
2,B18,significant increase; also recorded: significant improvement
3,B27,significant increase
4,B19,significant increase
5,B20,significant improvement
6,B21,significant improvement
7,B22,significant improvement
8,B23,significant improvement
9,B24,significant improvement
10,B25,significant improvement
11,B28,increased cis-α-irone production in-vivo
